Reference: the MegaScale stability set (Tsuboyama et al. 2023)

B1: 2K2A (parent)
chain: ELREAFRLYDKEGNGYISTDVMREILAELDETLSSEDLDAMIDEIDADGSGTVDFEEFMGVMT

Variants of: B1
Assay: folding stability dG (cDNA display proteolysis); higher = more stable
Conditions: PBS, room temperature

Folding stability dG [kcal/mol]: each site, then its substitutions
D30: W 2.22 | I 1.81 | G 1.13 | P 0.553 | C 1.97 | L 1.93 | K 1.45 | H 2.08 | E 0.964 | F 2.19 | Q 1.38 | T 1.3 | V 1.55 | Y 2.36 | R 1.72 | A 1.28 | S 1.4 | M 1.95 | N 2.1
G13: W 0.579 | R 1.01 | M 1.23 | L 1.11 | P -0.146 | K 1.14 | S 1.18 | A 1.05 | Y 0.607 | Q 1.26 | T 0.448 | F 0.932 | E 1.1 | V 0.792 | N 1.74 | H 1.15 | D 1.41 | C 1.5 | I 0.538
R23: H -0.034 | Y 0.595 | T -0.478 | M 0.457 | G -0.378 | L 0.522 | K 1.69 | A 0.182 | I 0.365 | C 0.094 | W 0.731 | Q -0.482 | S -0.561 | V -0.067 | F 0.124
I17: S -0.963 | R -0.847 | L 1.36 | T -0.998 | Y -0.493 | V 1.22 | F 0.818 | M 0.435 | W 0.006 | C 0.277 | K -0.854
G15: V 0.459 | C 1.1 | D 0.537 | P 0.347 | N 0.741 | S 0.464 | K 0.271 | R 0.333 | Y 0.571 | M 0.662 | W 0.821 | I 0.513 | T 0.259 | A 0.588 | L 0.841 | F 0.687 | H 0.458 | Q 0.45 | E 0.488
A27: C 1.47 | M 2.03 | I 1.87 | D 0.222 | F 1.73 | R 2.25 | H 1.94 | L 2.06 | K 2.21 | T 1.6 | E 1.12 | P -0.602 | S 1.87 | N 1.24 | G 1.47 | Y 1.75 | V 1.59 | W 1.73 | Q 1.93
K11: W 1.88 | Y 1.63
L26: I 1.45 | M 1.27 | Y 0.295 | V 0.555 | R -0.879 | A 0.083 | F 1.04 | W 0.837 | C 0.479
I25: W 0.943 | M 1.31 | A 0.872 | K 0.177 | R 0 | T -0.61 | Y 0.879 | F 1.53 | H -0.033 | V 1.31 | L 1.82 | C 0.786 | Q -0.758
E12: L 1.55 | H 1.41 | P 0.544 | W 1.48 | C 1.61 | R 0.846 | A 1.57 | T 1.32 | N 1.52 | Q 1.56 | F 1.45 | V 1.19 | G 1.16 | I 1.1 | K 1.13 | S 1.34 | D 1.85 | Y 1.2 | M 1.53
L29: I 1.64 | C 2.18 | R 2.12 | K 1.52 | T 1.15 | V 1.28 | M 2.15 | Q 1.49 | F 1.91 | Y 1.92 | S 1.32 | A 1.52 | E 0.559 | W 2.15 | H 1.73 | N 1.34 | G 0.955 | D 0.372
S18: T 2.02 | C 1.29 | K 1.24 | M 1.25 | H 1.54 | P 1.58 | N 1.16 | G 1.52 | Y 1.32 | V 0.765 | E 0.834 | D 0.936 | A 1.42 | I 0.865 | R 1.59 | W 0.742 | Q 1.01 | F 1.15 | L 1.41
N14: S 1.5 | R 2.11 | M 1.78 | C 1.43 | I 1.73 | T 1.74 | Q 1.53 | G 0.728 | Y 1.6 | E 0.908 | H 1.63 | P -0.347 | F 1.7 | D 1.3 | L 2.17 | K 2.09 | V 2.07 | W 1.38 | A 1.55
E31: L 2 | K 2.34 | F 1.89 | D 1.97 | G 2.17 | H 2.26 | C 1.92 | I 1.93 | A 2.24
V21: D 1.95 | K 2.04 | C 2 | Q 2.36 | Y 1.61 | I 2.02 | N 1.74 | G 0.967 | E 1.56 | T 1.92 | H 1.77 | M 2.06 | F 1.41 | L 2.19 | R 1.88 | S 1.94 | W 1.09 | A 2.17
M22: V 1.4 | L 1.97 | T 0.155 | A 0.924 | H -0.985 | Y 0.295 | F 1.65 | D -0.77 | C 0.958 | I 1.46 | W 0.847
T19: E 0.025 | F 2.18 | Q 0.688 | L 2.27 | H 1.01 | S 1.23 | P 0.762 | V 2.04 | W 1.4 | A 1.32 | I 2.29 | G 0.526 | M 1.91 | D 0.211 | K 1.67 | Y 2.03 | R 1.86 | N 1.73 | C 1.39
E28: V 1.76 | P -0.155 | N 2.22 | R 2.59 | F 1.77 | K 2.52 | L 2.25 | M 2.28 | T 2.03 | A 2.46 | S 2.34 | Y 1.83 | C 2.33 | D 1.78 | I 1.85 | W 1.89 | Q 2.24 | H 2.2 | G 2.28
D20: M 2.25 | N 2.04 | Q 2.33 | V 2.14 | W 1.99 | T 2.25 | I 2.03 | L 2.35 | E 2.16 | C 1.9 | R 2.23 | Y 1.66 | S 2.26 | K 2.4 | G 1.89 | P 1.15 | H 2.05 | A 2.28 | F 1.89
Y16: V 1.1 | A 0.729 | E 0.315 | C 0.627 | K 1.19 | F 1.89 | P -0.96 | H 1.21 | Q 1.03 | S 1.03 | T 1.05 | N 0.623 | D -0.18 | G -0.095 | L 0.96 | W 2.34 | M 0.8 | I 0.893 | R 1.15
E24: N 2.19 | S 2.3 | L 2.55 | C 2.6 | M 2.52 | R 2.58 | G 2.08 | F 2.32 | K 2.6 | P -0.167 | V 2.23 | Y 2.2 | A 2.35 | D 1.77 | Q 2.48 | W 2.31 | I 2.29 | T 2.22 | H 2.14
